Biological target: T1, human TLR3 ectodomain (huTLR3-ECD) (Homo sapiens, UniProt O15455)
T1 construct: The human TLR3-ECD (27-700) was modified with an N-terminal gb67 leader and a C-terminal 6× poly histidine tag; gb67 (gp67) secretion leader (N); 6xHis (C); made in house; host or cells: Sf21 insect cells (baculovirus, pFastBac1, Bac-to-Bac)
Test: In vitro binding by co-immunoprecipitation
Conditions: purified TLR3 ectodomain and purified BGN
Procedure: The human TLR3-ECD (27-700) was modified with an N-terminal gb67 leader and a C-terminal 6× poly histidine tag and the sequence was produced synthetically (Geneart) and cloned into a pFastBac1 vector. The virus was generated and amplified at large scale levels using a Sf21 insect cell-line (Bac-to-Bac®). One liter Sf21 cell culture was infected and harvested at 72 hours. The culture was centrifuged at 1000×g for 30 min and the supernatant was filtered through a 0.2 μm nitrocellulose membrane. The filtrate was loaded onto a 5 ml His Trap EXCEL column (GE, 17-3712-06) using a peristaltic pump. […] The protein fractions were analyzed by SDS-PAGE and TLR3 containing fractions were pooled and concentrated to a final volume of ˜500 μl using a spin concentrator (Vivaspin®20) with a 10 kDa molecular weight cut-off. […] TLR3 containing fractions were analyzed by SDS-PAGE and pooled and concentrated to 1 mg/ml. Protein concentration was estimated using a Nano Drop by measuring the absorbance at 280 nm (MW=[…], ε=61.9 mol^−1 cm^−1).
The human BGN (38-368) was modified with an N-terminal Secrecon tag followed by a 6× poly histidine tag and a Strep-Tag II. […] The protein fractions were analyzed by SDS-PAGE and BGN containing fractions were pooled and concentrated to a final volume of ˜500 μl using a spin concentrator (Vivaspin®20) with a 10 kDa molecular weight cut-off. […]

- interaction with huTLR3-ECD by immunoprecipitation: confirmed this interaction
B1: BGN: proteoglycan biglycan (BGN), a structural protein of the extracellular matrix (ECM) (protein)
chain: DEEASGAETTSGIPDLDSLPPTYSAMCPFGCHCHLRVVQCSDLGLKAVPKEISPDTTLLDLQNNDISELRKDDFKGLQHLYALVLVNNKISKIHEKAFSPLRKLQKLYISKNHLVEIPPNLPSSLVELRIHDNRIRKVPKGVFSGLRNMNCIEMGGNPLENSGFEPGAFDGLKLNYLRISEAKLTGIPKDLPETLNELHLDHNKIQAIELEDLLRYSKLYRLGLGHNQIRMIENGSLSFLPTLRELHLDNNKLSRVPAGLPDLKLLQVVYLHTNNITKVGVNDFCPVGFGVKRAYYNGISLFNNPVPYWEVQPATFRCVTDRLAIQFGNYKK
